Source: patent publication US20210101998A1 (Pfizer, published 2021)
Positions count from the first letter of the chain named. Read-outs that look alike come from different tables or passages of the source.

How the values were obtained:
[1] = molecular target: T1, murTFPI K1K2 (mouse); test: SPR, antibody ligand, TFPI analyte
T1 construct: also called Mouse TFPI K1K2; mouse TFPI
T1 chain: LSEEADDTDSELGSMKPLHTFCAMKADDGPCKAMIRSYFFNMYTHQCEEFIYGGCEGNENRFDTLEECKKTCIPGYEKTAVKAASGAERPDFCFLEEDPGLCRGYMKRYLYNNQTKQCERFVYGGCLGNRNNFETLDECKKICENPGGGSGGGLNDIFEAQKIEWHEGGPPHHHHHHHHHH

[2] = molecular target: T2, humTFPI K1K2 (human); test: SPR, antibody ligand, TFPI analyte;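 on result: surface plasmon resonance on a BIAcore T200 at 25 °C, test antibody captured on immobilized anti-human IgG, TFPI K1K2 flowed as analyte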
T2 construct: Biotinylated on the AviTag for ELISA; also called Human TFPIα K1K2; humTFPI K1K2-aviHis10

[3] = molecular target: T2, humTFPI K1K2; test: SPR, antibody ligand, TFPI analyte; remark: listed apart in the source
Method: (§1) The flow cells were activated by injecting a 1:1 mixture of 400 mM 1-Ethyl-3-(3-dimethylaminopropyl) carbodiimide hydrochloride (EDC) and N-hydroxysuccinimide (NHS) for 7 minutes at a flow rate of 10 μl/minute. Anti-human IgG antibody was diluted to 25 μg/ml in 10 mM Sodium Acetate pH 5.0 and injected over all flow cells for 7 minutes at 10 ul/minute. All flow cells were blocked with 1 M Ethanolamine-HCL (ETH) for 7 minutes at 10 μl/minute. Final immobilization level of the capture antibody was approximately 10,000 resonance units (RU). The running buffer for immobilization and kinetics was 10 mM HEPES pH 7.4, 150 mM NaCl, 3 mM EDTA, 0.05% (v/v) Tween-20 (HBS-EP+). […] Flow cell 1 was used as a reference surface. […] At the end of each cycle, the entire anti-IgG surface was regenerated by a 60 second pulse of 3 M MgCl2. Kinetic assays were conducted at 25° C. at a collection rate of 10 Hz on a BIAcore T200 instrument (GE Healthcare). Rate constants and affinities were determined by fitting the data to a 1:1 model in BIAcore T200 Evaluation software version 1.0 (GE).

[4] = molecular target: T2, humTFPI K1K2; test: cell-based or functional assay
[5] = molecular target: T3, rabTFPI K1K2 (rabbit, limits assumed); test: SPR, antibody ligand, TFPI analyte;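 further: surface plasmon resonance on a BIAcore T200 at 25 °C, test antibody captured on immobilized anti-human IgG, TFPI K1K2 flowed as analyte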
T3 construct: also called Rabbit TFPI K1K2; rabbit TFPI
T3 chain: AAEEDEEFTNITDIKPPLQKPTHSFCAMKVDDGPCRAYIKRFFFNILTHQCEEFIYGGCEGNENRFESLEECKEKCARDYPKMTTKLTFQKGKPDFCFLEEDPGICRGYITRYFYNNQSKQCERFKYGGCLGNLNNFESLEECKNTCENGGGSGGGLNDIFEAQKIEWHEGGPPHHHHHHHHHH
Method: as §1

[6] = molecular target: T4, ratTFPI K1K2 (rat); test: SPR, antibody ligand, TFPI analyte;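 further: surface plasmon resonance on a BIAcore T200 at 25 °C, test antibody captured on immobilized anti-human IgG, TFPI K1K2 flowed as analyte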
T4 chain: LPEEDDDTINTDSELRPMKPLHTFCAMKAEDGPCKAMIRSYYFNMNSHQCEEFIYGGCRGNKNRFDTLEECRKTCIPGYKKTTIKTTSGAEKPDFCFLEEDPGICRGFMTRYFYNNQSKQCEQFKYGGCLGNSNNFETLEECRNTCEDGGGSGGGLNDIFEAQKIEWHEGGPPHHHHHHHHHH
Method: as §1

[7] = molecular target: T2, humTFPI K1K2; test: cell-based or functional assay; remark: listed apart in the source
[8] = molecular target: T3, rabTFPI K1K2; test: SPR, summary table
Method: as §1

[9] = molecular target: T4, ratTFPI K1K2; test: SPR, summary table
Method: as §1

[10] = molecular target: T5, cynTFPI K1K2 (cynomolgus monkey); test: SPR, antibody ligand, TFPI analyte;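 further: surface plasmon resonance on a BIAcore T200 at 25 °C, test antibody captured on immobilized anti-human IgG, TFPI K1K2 flowed as analyte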
T5 construct: also called Cynomolgus Monkey TFPI K1K2; cyno TFPI K1K2
Method: as §1

[11] = molecular target: T2, humTFPI K1K2; test: SPR, antibody ligand, TFPI analyte; remark: listed apart in the source
Method: as §1

[12] = molecular target: T1, murTFPI K1K2; test: SPR, summary table
Method: as §1

[13] = molecular target: T5, cynTFPI K1K2; test: SPR, summary table
Method: as §1

[14] = molecular target: T2, humTFPI K1K2; test: SPR, summary table
Method: as §1

[15] = molecular target: T2, humTFPI K1K2; test: SPR, antibody ligand, TFPI analyte; remark: listed apart in the source
Method: as §1

[16] = molecular target: humTFPI K1K2K3 (human); test: cell-based or functional assay

B1: TFPI-24 (antibody, human IgG1, lambda, V domains shown)
VH: EVQLVESGGGSVQPGRSLRLSCAVSGLTIDNYAMQWVRQRPGKGLEWVSGISGNSRSIGYADSVKGRLTISRDNAKNSLYLQIDSLRADDTALYYCAIFLHESDYWGQGTLVTVSS
VL: QSVLTQPPSVSGTPGQRVTISCSGSTSNIGTMYVHWYQHVPGTAPKLLIYRNNHRPSGVPDRFSGSKSGTSGSLAISGLRSEDEADYYCLAWDDTLRAYVFGTGTKVTVLG
notes: Human IgG1-3M from phage display; also called mAb-TFPI-24; clone 24
Binder B1 has a Kd [1] of 24.1 nM, a koff [1] of 0.00596 s⁻¹ and a kon [1] of 248000 M⁻¹ s⁻¹. It also gave a Kd [2] of 5.46 nM, a koff [2] of 0.000862 s⁻¹ and a kon [2] of 159000 M⁻¹ s⁻¹. For the same binder, the koff [3] was 0.000862 s⁻¹, the kon [3] was 159000 M⁻¹ s⁻¹ and the “FXa EC50” value [4] was 23 nM. The “FXa-FVIIa EC50” value [4] was 9.3 nM.

B2: TFPI-118 (antibody, human IgG1, lambda, V domains shown)
VH: B1 VH with S11L, R40A, L68F, I83M, D84N, D89E
VL: B1 VL with V10A, H39Q, V40L, G72A
notes: Germlined variant of TFPI-24: VL of TFPI-113 paired with VH of TFPI-108
In the case of B2, the Kd [5] is reported as 5.79 nM, the Kd [6] is reported as 3.65 nM and the “FVIIa/TF/Xa EC50” value [7] is reported as 4.03 nM. The “Xa Inhibition Assay EC50” value [7] was 20.8 nM, the Kd [8] was 5.79 nM and the Kd [9] was 3.65 nM.

B3: hz4F36 (antibody, human IgG4 S228P, kappa, V domains shown)
VH: EVQLVESGGGLVKPGGSLRLSCAASGFTFSNYAMSWVRQTPEKRLEWVATISRSGSYSYFPDSVQGRFTISRDNAKNSLYLQMNSLRAEDTAVYYCARLGGYDEGDAMDSWGQGTTVTVSS
VL: DIVMTQTPLSLSVTPGQPASISCKSSQSLLESDGKTYLNWYLQKPGQSPQLLIYLVSILDSGVPDRFSGSGSGTDFTLKISRVEAEDVGVYYCLQATHFPQTFGGGTKVEIKR
notes: also called Novo2021; Anti-TFPI-4F36
B3 gave a Kd [5] of 1.81 nM, a koff [5] of 0.0076 s⁻¹ and a kon [5] of 4.2e+06 M⁻¹ s⁻¹. For the same binder, the binding result [6] was “no binding”, the Kd [10] was 0.425 nM and the koff [10] was 0.00288 s⁻¹. It also gave a kon [10] of 6.86e+06 M⁻¹ s⁻¹, a Kd [11] of 0.49 nM and a koff [11] of 0.00093 s⁻¹. The kon [11] was 1.89e+06 M⁻¹ s⁻¹, the “FVIIa/TF/Xa EC50” value [7] was 1.85 nM and the “Xa Inhibition Assay EC50” value [7] was 6.57 nM. The Kd [8] was 1.81 nM, the binding result [12] was “no binding” and the Kd [13] was 0.425 nM. It also gave a Kd [14] of 0.493 nM.

B4: TFPI-23 (antibody, human IgG1, lambda)
light: QSVLTQPPSVSGAPGQRVTISCTGSSSNIGAGYDVHWYQQLPGTAPKLLIYGNSNRPSGVPDRFSGSKSGTSASLAITGLQAEDEADYYCQSYDSSLSGSGVFGGGTKLTVLGQPKAAPSVTLFPPSSEELQANKATLVCLISDFYPGAVTVAWKADSSPVKAGVETTTPSKQSNNKYAASSYLSLTPEQWKSHRSYSCQVTHEGSTVEKTVAPTECS
heavy: not shown
notes: Human IgG1-3M from phage display; also called mAb-TFPI-23; clone 23
B4 gave a Kd [15] of 9.89 nM, a Kd [1] of 1.46 nM and a Kd [2] of 9.89 nM. The “FXa EC50” value [4] was 46 nM and the “FXa-FVIIa EC50” value [4] was 32.2 nM.

B5: TFPI-106 (antibody, human IgG1, lambda)
light: B4 light
heavy: not shown
With B5 the Kd [5] was 4.25 nM, the Kd [6] was 1.57 nM and the “FVIIa/TF/Xa EC50” value [7] was 4.3 nM. For the same binder, the “Xa Inhibition Assay EC50” value [7] was 18.1 nM, the Kd [8] was 4.25 nM and the Kd [9] was 1.57 nM. For the same binder, the “EC50, neutralization of FVIIa/TF/FXa inhibition” value [16] was 8.47 nM.
